Tests used:
Test in all cases: stopped-flow fluorometry; mGppNHp-bound RHO protein (0.2 μM) rapidly mixed with IQGAP1 variant (2 μM, or 2-12 μM for kon); koff by displacement with 10 μM non-fluorescent GppNHp-bound GTPase; Kd = koff/kon; 30 mM Tris-HCl pH 7.5, 10 mM KH2PO4/K2HPO4, 5 mM MgCl2, 3 mM DTT
Details in all cases: both partners purified
[1] = biological target: T1, IQGAP1 GRD1-CT (aa 863-1657) (human, UniProt P46940 863-1657)
T1 construct: human IQGAP1, GRD, RGCT and CT domains, aa 863-1657; The GST tag was cleaved 'if needed'; also called C-terminal half of IQGAP1; C-terminal 795 amino acids of IQGAP1
T1 sequence (looked up): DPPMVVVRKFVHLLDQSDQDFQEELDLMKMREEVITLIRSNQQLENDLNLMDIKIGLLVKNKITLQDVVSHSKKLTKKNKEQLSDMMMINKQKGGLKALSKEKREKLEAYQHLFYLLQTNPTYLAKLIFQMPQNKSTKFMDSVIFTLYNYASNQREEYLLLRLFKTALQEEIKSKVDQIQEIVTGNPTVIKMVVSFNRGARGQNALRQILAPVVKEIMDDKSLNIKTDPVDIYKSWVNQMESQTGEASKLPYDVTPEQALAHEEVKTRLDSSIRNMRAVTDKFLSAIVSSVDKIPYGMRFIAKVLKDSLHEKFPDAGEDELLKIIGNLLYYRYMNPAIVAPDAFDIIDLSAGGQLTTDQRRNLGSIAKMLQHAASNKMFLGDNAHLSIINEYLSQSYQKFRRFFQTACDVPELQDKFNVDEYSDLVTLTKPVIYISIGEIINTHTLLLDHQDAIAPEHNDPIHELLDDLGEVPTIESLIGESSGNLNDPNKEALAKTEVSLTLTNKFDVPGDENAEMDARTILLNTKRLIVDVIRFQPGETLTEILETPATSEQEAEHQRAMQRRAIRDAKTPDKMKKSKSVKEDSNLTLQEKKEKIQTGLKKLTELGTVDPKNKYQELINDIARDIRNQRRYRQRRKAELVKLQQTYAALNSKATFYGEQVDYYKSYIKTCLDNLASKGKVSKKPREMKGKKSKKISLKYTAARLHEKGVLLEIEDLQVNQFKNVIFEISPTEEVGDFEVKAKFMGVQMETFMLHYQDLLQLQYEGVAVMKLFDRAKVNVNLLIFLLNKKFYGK

[2] = biological target: T2, IQGAP1 GRD1-RGCT wild type (aa 877-1558) (human, UniProt P46940 877-1558)
T2 construct: human IQGAP1, GRD and RGCT domains, lacks the last 99 amino acids, aa 877-1558; also called GRD1-RGCT^WT; IQGAP1^877-1558
T2 sequence (looked up): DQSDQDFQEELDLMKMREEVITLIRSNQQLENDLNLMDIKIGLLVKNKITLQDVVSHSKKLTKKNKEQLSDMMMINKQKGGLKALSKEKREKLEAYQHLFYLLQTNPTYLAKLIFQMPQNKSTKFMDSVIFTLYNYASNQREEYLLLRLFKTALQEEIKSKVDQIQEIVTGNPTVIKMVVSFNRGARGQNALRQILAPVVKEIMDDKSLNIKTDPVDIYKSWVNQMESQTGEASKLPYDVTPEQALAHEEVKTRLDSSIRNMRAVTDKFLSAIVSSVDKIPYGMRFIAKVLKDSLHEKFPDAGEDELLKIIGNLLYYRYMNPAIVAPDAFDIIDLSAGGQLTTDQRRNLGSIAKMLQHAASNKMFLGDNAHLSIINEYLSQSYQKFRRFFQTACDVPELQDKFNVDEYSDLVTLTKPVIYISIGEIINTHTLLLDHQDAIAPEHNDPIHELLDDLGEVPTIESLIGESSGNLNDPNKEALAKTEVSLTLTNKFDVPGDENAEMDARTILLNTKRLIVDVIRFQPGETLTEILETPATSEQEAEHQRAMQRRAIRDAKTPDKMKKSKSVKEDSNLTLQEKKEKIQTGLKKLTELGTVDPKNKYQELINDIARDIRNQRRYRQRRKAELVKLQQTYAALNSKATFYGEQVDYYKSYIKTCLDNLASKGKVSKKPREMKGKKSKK

[3] = biological target: T3, IQGAP1 GRD1-RGCT S1441E (aa 877-1558) (human, UniProt P46940 877-1558, S1441E)
T3 construct: human IQGAP1 aa 877-1558 with the phosphomimetic mutation S1441E, from the vector pET46 EkLIC; source: E. coli (pLysS BL21(DE3), CodonPlusRIL or BL21(Rosetta)), purified (Ni-NTA, gel filtration)
T3 sequence (looked up): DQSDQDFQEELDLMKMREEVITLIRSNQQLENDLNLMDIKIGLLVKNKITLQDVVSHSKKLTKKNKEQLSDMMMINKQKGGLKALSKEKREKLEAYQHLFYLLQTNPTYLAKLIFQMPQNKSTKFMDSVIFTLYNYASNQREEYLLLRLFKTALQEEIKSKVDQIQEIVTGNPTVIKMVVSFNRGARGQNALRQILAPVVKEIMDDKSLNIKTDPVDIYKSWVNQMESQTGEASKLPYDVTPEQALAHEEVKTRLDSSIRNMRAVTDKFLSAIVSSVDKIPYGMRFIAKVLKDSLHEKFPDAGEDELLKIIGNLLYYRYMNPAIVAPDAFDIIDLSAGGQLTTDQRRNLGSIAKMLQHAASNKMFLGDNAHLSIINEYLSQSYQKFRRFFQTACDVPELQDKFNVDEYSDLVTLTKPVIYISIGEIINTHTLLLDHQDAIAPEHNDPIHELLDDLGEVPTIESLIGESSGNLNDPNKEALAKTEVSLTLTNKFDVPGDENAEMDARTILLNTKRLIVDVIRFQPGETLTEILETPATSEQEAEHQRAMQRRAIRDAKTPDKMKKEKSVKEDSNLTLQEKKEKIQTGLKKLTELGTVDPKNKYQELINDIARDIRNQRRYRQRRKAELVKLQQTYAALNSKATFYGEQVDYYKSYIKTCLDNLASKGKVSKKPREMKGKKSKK

Kd [1]: 300 nM
Kd [2]: 2720 nM
Kd [3]: 2050 nM
B1: CDC42 (aa 1-178) (domain or fragment)
chain: not shown
notes: human CDC42, C-terminally truncated, aa 1-178; Loaded non-covalently with mGppNHp, tGppNHp, mGDP or non-fluorescent GppNHp; the nucleotide is named in the format of each assay; also called CDC42^WT; CDC42-mGppNHp

Source: article PMC5159498, “IQGAP1 Interaction with RHO Family Proteins Revisited” (The Journal of Biological Chemistry, 2016)
